Test results from the nanobody polyreactivity screen of Harvey et al. (2022).

Experiment: yeast display, Sf9 membrane polyspecificity reagent, FACS + sequencing; frameworks hold sequencing errors
Procedure, shortened: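 Synthetic nanobody libraries on Saccharomyces cerevisiae BJ5465 were galactose-induced for 36–48 hours, stained 1 hour at 4 °C with 10% biotinylated, detergent-solubilized Sf9 membrane reagent and enriched on streptavidin microbeads. FACS then separated cells into low and high (top ~1%) gates by anti-HA (expression) and streptavidin (reagent binding) fluorescence. Genes were colony-PCR amplified, MiSeq 2 × 250 sequenced and CDR-length filtered. A clone's polyreactivity label is that of its gate of origin.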

Sequence	polyreactivity (PSR sort gate)
QVQLVESGGGLGQAGGSLRLSCAASGFTYYYYAMGWYIQAPRKDRELVAAISGGGGSTYYADSVKGRFTLSRDNAKNTVYLQMNSLKQVDTAVYYCAAVGSWRYYYDYDYWGQGTQVNVSS	high polyreactivity
QVQLVESGGGLVQAGGSLRLSCAASGSTFGYYAMGWYRQAPGKERELVAAITRGASTYYADSVNGRFTISRDNAKNTVYLQMNSLKPDDTAVYYCAFDTWKVQGASSRYRKMYYWGQGTQVTVSS	low polyreactivity
QVQLVESGGGLVQAGGSLRLSCAASGSIFVNNAMGWYRQAPGKERELVAAISSRGGSTYYADSVKGRFTISRDNAKNTVYLQMNSLKPEDTAVYYCAAEYDGPYYSFYPEQRYYWGLGTQVTVSS	low polyreactivity
QFQLVESGGGLVQAGGSLRLSCAASGRIFTYYAMGWYRQAPGKEWELVAAISTSGGSTYYADSVKGRFTISRDNANNTVYLQMNSLKPEDTAVYYCAKVYPPRYYRDYNYWGQGTQVTVSS	high polyreactivity
QVQLVESGGGLVQAGGSLRLSCAASGSIYDWYSMGWNIQAPGKERELVAAISSGDSTYYADSVKGRFTISRDNAKNTVYLQMNSLKPEDTAVYYCAAVTKLSGIRYNYWGQGTQVTVSS	low polyreactivity
QVQLVESGGGLVQAGGSLRLSCAASGRTFKRYAMGWYRQAPGKERELVAAITFSGGSTYYADSVKGRFTISRDNAKNTVYLQMNSLKPADTAVYYCAAVGEHYPWDYYWGQGTQVTVSS	high polyreactivity
QVQLVESGGGLVQAGGSLRLSCAASGLTFIYYAMGWYRQAPGKERELVAAISVSGGSTYYADSVKGRFTISRDNAKNTVYLQMNSLKPEDTAVYYCAADWFVHIPRYQYSFDYWGQGTQVTVSS	low polyreactivity
QVQLVESGGGLVQAGGSLRLSCAASGFTFEDNTMGWYRQAPGKERELVAAITWGGVSTYYADSVKGRFTISRDNAKNTVYLQMNSLKPEDTAVYYCAAEEQVVKAHGDYWGQGTQVTVSS	low polyreactivity
QVQLVESGGGLVQAGGSLRLSCAASGLIFSFYAMGWYRKAPGKERELVATISNTDSTNYADSVKGRFTISRDNAKNTVYLQMNRLKPEDTAVYYCAADVWDGRYLYTGVYDYWGQGTQVTVSS	low polyreactivity
QVQLVESGGGLVQAGGSLRLSCAASGITFFENAMGWYRQAPGKERELVASISSSGGSTYYADSVKGRFTISRDNAKNTVYLQMNSLKPEDTAVYYCAARYYSQKSYIGFRPGYEYWGQGTQVTVSS	low polyreactivity
QVQLVESGGGLVQAGGSLRLSCAASGRTFNSTAMGWYRQAPGKERELVAAITRSGGSTYYADSVKGRFTISRDYAKNTVYLQMISQKPEDTAVNYCITTRWTQRTSFDYWGQGTQVTVSS	low polyreactivity
QVQLVESGGGLVQAGGSLRLSCAASGRTFYTNAMGWYRQAPGKERELVASISGSGGSTYYADSVKGRFTISRDNGKNTVYLQMNSLNPEDTAVYYCAADPAPTVEFGKYDYWGQGTQVTVSS	low polyreactivity
QVQIVESGGGLVQAGGSLRLSCAASGRTFTAYAMGWYRQAPGKERELVAAITTSGGTTYYADSVKGRFTISRDNAKNTVYLQMKSLKPEDTAVYYCAADVVVSWWLIYDYWGQGTQVTVSS	low polyreactivity
QVQLVESAGGLVQAGGSLRLSCAASGRTIDSYTMGWYRQAPGKERELVASISKRGGSTYYADSVKERFTISRDNAKNTVYLQMNSLKPQDTAVYYCATKSYYVSYYRYRVDYWGQVTQVTVSS	high polyreactivity
QVQLVESGGGLVQAGGSLRLSCAASGRIFYYNAMGWYRQAPGKERELVAGITWRGGSTYYADSVKGRFTISRDNAKNTVYVQMNSLKPEDTAVYYCAKVGWTPYGVSPYDYWGQGTQVTVSS	high polyreactivity
QDQLVESWGGLVQAGGSLRLSCASSGITVYGYTMGWYRQAPGKERELVAGISRGGSTYYADSVKGRFTISRDNAKNTVYLQINSLKPEDTAVYYCAVESFYRHASLYDYWGQGTQVTVSS	high polyreactivity
QVQLVESGGGLVQAGGSLRLSCAASGSIFDVNSMGWYRQAPGKERELVAAISDSGGSTYYADSVKGRFTISRDNAKNTVYLQMNSLKPEDTAVYYCNADWSWYNYYDFDYLGQGTQVTVSS	low polyreactivity
QVQLVESGGGLVQAGGSLRLSCAASGIIFQDNAMGWYRQAPGKERELVATIDRGGDTYYADSVKGRFTISRDNAKNTVYLQMNSLKPEDTAVYYCAAVEFELRGDYWGQGTQVTVSS	low polyreactivity
QVHLVESGGGLVQAGGSLRLSCASTGFTFSRNTMGWYRQPPGKERELVARISASGGSTYYADSVKGRFTISRDNAKNTVYLQMNSLKPEDTAVYYCAAEGFYRSSPVRTYIGYDYWGQGSQVTVSS	high polyreactivity
QVQLVESGGGLVQAGGRLRLSCAASGLTYTRYTMGWYRPAPGKERELVAAITSSGGSTYYADSVKGRFTISRDNAKNTVFLQMNSLKPEDTAVYFCAARYPGTRGDGYWGQGTQVTVSS	high polyreactivity
QVQLVESGGGLVQAGGSLRLSCAASGFIFAEYAMGWYRQAPGKERELVAAITSGGSTSYADSVKGRFTISRDNAKNTVYLQMNSLKPEDTAVYYCAATWYYHYNDWKHWYEYGYWGQGTQVTVSS	low polyreactivity
QVHLVESGGGLVQAGGSLRLSCAASGRNSLRNGMGWYKQAPGKEWELDPAITSGSSTDYADSVKGRFTISRDNAKNTVDLEMNSLKPEDTAVSYCAKDLLQYGPGAGRYDYWGQGTQVTVSS	low polyreactivity

Sequence	polyreactivity (PSR sort gate)
QVQLVESGGGLVQAGGSLRLSCAASGRTSDEYAMGWYRPAPGKERELVAAITSGGSTNYADSVKGRFTISRDNAKNTVYLQMNSLKPEDTAVYYCAADNIRTWRPIYDYWGQGTQVTVSS	low polyreactivity
QGQLVESGGGLVQAGGSLRLSCAASAFIFDDNTMGWYRQAPGKERELGAAISYSAGSTYYADSVKGRFTISRDNAKNTVYLQMNSLKPEDTAVYSCAAQHYWVTSYLSSYDYWGQGTQVTLSS	low polyreactivity
QVQLVESGGGLVQAGGSLRLSCAASGNIFVRYVMGWYRQAPGKERELVAAITTSGGSTRYADSVKGRFTISRDNAKNTVYLQMNSLKPEDTAVYYCAARFRYRHLTYGYWGQGTQVTVSS	high polyreactivity
QVQLVESGGGLVQAGGSLRLSCAASGSIFYNYAMGWYRQAPGKERELVAAISSNGGSTYYADSVKGRFTISRDNAKNTVYLQMNSLKPEDTAVYYCAKYLSPGERHSYDYWGQGTQVTVSS	high polyreactivity
QVQLVESGGGLVQAGGSLRFSCAASGITFKGYAMGWYRQAPGKERELVAAINSRGGTYADSVKGRFTISRDNAKNTVYLQMNSLKPEDTAVYYCAVTAVRPLPLDSGYDYWGQGTQVTVSS	low polyreactivity
QVQLVESGGGLVQAGGSLRLSCAASGGTFNGYALGWYRQAPGKERELVAAITSGGGSTYADSVKGRFTISRDNAKNTVYLQMNSLKPEDTAVYYCNADQWDEWFWDYDYWGQGTQVTVSS	low polyreactivity
QVQHVESGVGLVQPVGSLRLSCAASGSTIVSNAMGWERQAPGKERELVAAISTSGGTTDYPDSVKGRFTISRHNAKNTVYLQMNCLKPEDTAVYYCAARHYYVKHSYDYWGQGTQVTVSS	low polyreactivity
QVQLVESGGGLVQAGGSLRLSCAASGSIFPYYAMGWYRQAPGKEWEFVAAISRRGGSTNYADSVKGRFTISRDTAKNTVYLQMNSLKPEDTAVYYCGKYTSYSRGYDYWGQGTQVTVSS	high polyreactivity
QVQLVESGGGLVQAGGILRLSCAASGLIFIGYAMGWYRQAPGKERELVASIRGVGSTNYADSVKGRFTISRDNAKNTVYLQMNSLKPEDTAVYYCATSVDRALYTQTRGDYDYWGQGTQVTVSS	low polyreactivity
QVQLVESGGGLVQAGGSLRLSCAASGSIFTQNAMGWYRQAPGKERALVAAMSSGGSTNDADSVKGRFTISRDNAKNTVYLQMNSLTPEDTAVDYCAKSIDGWYWRRRRYDYWGQGTQVTVSS	low polyreactivity
QVQIVESGGGLVQAGGSLRLSCAASGFIFYSYAMGWYRQAPGKEREFVASISGRTGSTYYADSVKVRFTISRDNAKNTVYLQMNSLKPEDTAVYYCNARIVHSFRYDYWGQGTQVTVSS	low polyreactivity
QVQLVESGGGLVQAGGSLRLSCAASGGIFKQYAMGWYRQAPGKERELVAAITWSGGSTYYADSVKGRFTISRDYAKNTVYLQMNSLKPEDTAVYYCAKDYVLFQYVDFQDDDYWGQGTQVTVSS	low polyreactivity
QVQLVESGGGLVQAGGSLRLSCAASGRIFSFYAMVWSRQAPGKERELVAAISSGGYTYYADSVKGRFTISRDNAKNTVYLQMNSLKPEDTAVYYCATGYRKLSSRYGYWGQGTQVTVSS	high polyreactivity
QVQLVESGGGLVQAGGSLRLSCAASGSIFTGNAMGWYRQAPGKERELVAAIRRSGA	low polyreactivity
QVQLVESGGGLVQAGGSLRLSCAASGRISSVYAMGLYRQAPGKERELVAGITWSDARTYYADSVKGRFTISRDNAKNTVYLQMNSLKPEDTAVYYCAADYYYYERDYWGQGTQVTVSS	low polyreactivity
QVHLVESGGGLVQAGGSLRLSCAASGIIFSTYAMGWYRQAPGKERELVAAITSTGSTNYADSVKGRFTISRDNAKNTVYLQINRLKQEDTAVYYCAARYAGPSPTDTGHDYWGQGTQVTVSS	low polyreactivity
QDQLVESGVGLVQAGGSLRLSCAASGRTYFSHTMGWYRQAPGKERQLVAAITRSGGTTYYADSVKGRFTISRDNAKNTVYLQMNSLKPEDTAVYYCAARTSYAFYYPRDYWGQGTQVTVSS	high polyreactivity
QVQLVESGGGLVQAGGSLRLSCSASGSIFNYYAMGWYRQPPGKERELVAAISYRTGSTYYADSVKGRFTISRDNSKNTVYLQMNSLKPEDTSVYYCAADTRYGYGYWGQGTQVTVSS	high polyreactivity
QVQLVESGGGLVQAGGSLRLSCAASGGTSQRYVMGWYRQAPGKERELVAAITSTGSTYYADSVKWRFTISRDNAKNTVYLQMNSLKPEDTAVYYCATGRLRIYKSYYWGQGTQVTVSS	high polyreactivity
QVQLVESGGGLVQAGGSLRLSCAASGGIFFSYAMGWYRQAPGKERELVAAIRTNGGTTYYADSVKGRFTISRDNAKNTVYLQMNRLKPEDTAVYYCAALPGGYYDRGEYDYWGQGTQVTVSS	low polyreactivity
QVQLVESGGGLVQAGGSLRLSCAASGSIFYRNAMGWYRQAPGKERELVAAISSDGSTNYADSVKVRFTISRDNAKNTVYLQMNSLKPEDTAVYYCAAPWTQILDYWGQGTQVTVSS	low polyreactivity
